Assay results published in IntAct's records for PubMed 32296183.

B1: Catenin alpha-3 (Homo sapiens), Q9UI47-2 (parent)
chain: MSAETPITLNIDPQDLQVQTFTVEKLLEPLIIQVTTLVNCPQNPSSRKKGRSKRASVLLASVEEATWNLLDKGEKIAQEATVLKDELTASLEEVRKESEALKVSAERFTDDPCFLPKREAVVQAARALLAAVTRLLILADMIDVMCLLQHVSAFQRTFESLKNVANKSDLQKTYQKLGKELENLDYLAFKRQQDLKSPNQRDEIAGARASLKENSPLLHSICSACLEHSDVASLKASKDTVCEEIQNALNVISNASQGIQNMTTPPEPQAATLGSALDELENLIVLNPLTVTEEEIRPSLEKRLEAIISGAALLADSSCTRDLHRERIIAECNAIRQALQDLLSEYMNNAGKKERSNTLNIALDNMCKKTRDLRRQLRKAIIDHVSDSFLDTTVPLLVLIEAAKNGREKEIKEYAAIFHEHTSRLVEVANLACSMSTNEDGIKIVKIAANHLETLCPQIINAALALAARPKSQAVKNTMEMYKRTWENHIHVLTEAVDDITSIDDFLAVSGMFLFF
partner: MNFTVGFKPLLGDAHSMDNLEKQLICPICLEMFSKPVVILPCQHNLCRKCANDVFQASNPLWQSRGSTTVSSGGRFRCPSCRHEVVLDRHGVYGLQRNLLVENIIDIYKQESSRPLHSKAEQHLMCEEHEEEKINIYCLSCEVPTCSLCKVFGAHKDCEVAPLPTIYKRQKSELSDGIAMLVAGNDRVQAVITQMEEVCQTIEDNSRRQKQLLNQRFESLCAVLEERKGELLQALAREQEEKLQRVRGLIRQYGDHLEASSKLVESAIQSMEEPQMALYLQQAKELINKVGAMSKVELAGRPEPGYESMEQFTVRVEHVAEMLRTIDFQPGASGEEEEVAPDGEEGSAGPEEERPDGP
B2: Golgi SNAP receptor complex member 2 (Homo sapiens), O14653 (parent)
chain: MDPLFQQTHKQVHEIQSCMGRLETADKQSVHIVENEIQASIDQIFSRLERLEILSSKEPPNKRQNARLRVDQLKYDVQHLQTALRNFQHRRHAREQQERQREELLSRTFTTNDSDTTIPMDESLQFNSSLQKVHNGMDDLILDGHNILDGLRTQRLTLKGTQKKILDIANMLGLSNTVMRLIEKRAFQDKYFMIGGMLLTCVVMFLVVQYLT
partner: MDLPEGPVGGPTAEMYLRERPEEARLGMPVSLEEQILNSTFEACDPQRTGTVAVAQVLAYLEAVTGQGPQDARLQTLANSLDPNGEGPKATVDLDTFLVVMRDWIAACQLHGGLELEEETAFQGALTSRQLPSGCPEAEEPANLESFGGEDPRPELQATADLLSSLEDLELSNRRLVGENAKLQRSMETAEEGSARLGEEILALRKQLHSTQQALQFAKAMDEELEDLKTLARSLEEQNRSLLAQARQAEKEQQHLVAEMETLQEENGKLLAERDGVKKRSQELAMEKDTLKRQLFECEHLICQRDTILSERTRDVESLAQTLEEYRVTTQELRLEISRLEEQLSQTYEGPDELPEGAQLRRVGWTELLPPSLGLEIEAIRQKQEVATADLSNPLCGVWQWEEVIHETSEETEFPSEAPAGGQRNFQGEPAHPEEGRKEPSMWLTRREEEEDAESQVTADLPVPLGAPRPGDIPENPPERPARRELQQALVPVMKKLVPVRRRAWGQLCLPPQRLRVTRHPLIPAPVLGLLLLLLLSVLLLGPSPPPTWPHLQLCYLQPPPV
B3: Catenin alpha-3 (Homo sapiens), Q9UI47-2 (parent)
chain: B1 chain
partner: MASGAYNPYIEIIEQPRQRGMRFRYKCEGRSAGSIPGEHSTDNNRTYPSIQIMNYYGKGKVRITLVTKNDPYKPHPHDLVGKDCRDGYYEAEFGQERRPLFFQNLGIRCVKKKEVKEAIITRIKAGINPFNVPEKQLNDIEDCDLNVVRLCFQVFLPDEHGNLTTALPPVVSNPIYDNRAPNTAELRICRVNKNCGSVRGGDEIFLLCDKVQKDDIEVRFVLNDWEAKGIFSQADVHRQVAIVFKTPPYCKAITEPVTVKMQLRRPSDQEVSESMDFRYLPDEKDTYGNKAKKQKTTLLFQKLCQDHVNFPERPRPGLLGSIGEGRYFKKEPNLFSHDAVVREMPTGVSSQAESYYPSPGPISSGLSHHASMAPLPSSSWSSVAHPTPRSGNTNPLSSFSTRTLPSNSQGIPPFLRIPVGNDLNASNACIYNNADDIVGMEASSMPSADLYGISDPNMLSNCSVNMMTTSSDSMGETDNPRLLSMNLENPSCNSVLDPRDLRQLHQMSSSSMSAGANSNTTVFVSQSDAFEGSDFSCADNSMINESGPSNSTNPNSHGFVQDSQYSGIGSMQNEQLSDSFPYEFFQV
B4: Succinate--CoA ligase [ADP-forming] subunit beta, mitochondrial (Homo sapiens), Q9P2R7 (parent)
chain: MAASMFYGRLVAVATLRNHRPRTAQRAAAQVLGSSGLFNNHGLQVQQQQQRNLSLHEYMSMELLQEAGVSVPKGYVAKSPDEAYAIAKKLGSKDVVIKAQVLAGGRGKGTFESGLKGGVKIVFSPEEAKAVSSQMIGKKLFTKQTGEKGRICNQVLVCERKYPRREYYFAITMERSFQGPVLIGSSHGGVNIEDVAAESPEAIIKEPIDIEEGIKKEQALQLAQKMGFPPNIVESAAENMVKLYSLFLKYDATMIEINPMVEDSDGAVLCMDAKINFDSNSAYRQKKIFDLQDWTQEDERDKDAAKANLNYIGLDGNIGCLVNGAGLAMATMDIIKLHGGTPANFLDVGGGATVHQVTEAFKLITSDKKVLAILVNIFGGIMRCDVIAQGIVMAVKDLEIKIPVVVRLQGTRVDDAKALIADSGLKILACDDLDEAARMVVKLSEIVTLAKQAHVDVKFQLPI
partner: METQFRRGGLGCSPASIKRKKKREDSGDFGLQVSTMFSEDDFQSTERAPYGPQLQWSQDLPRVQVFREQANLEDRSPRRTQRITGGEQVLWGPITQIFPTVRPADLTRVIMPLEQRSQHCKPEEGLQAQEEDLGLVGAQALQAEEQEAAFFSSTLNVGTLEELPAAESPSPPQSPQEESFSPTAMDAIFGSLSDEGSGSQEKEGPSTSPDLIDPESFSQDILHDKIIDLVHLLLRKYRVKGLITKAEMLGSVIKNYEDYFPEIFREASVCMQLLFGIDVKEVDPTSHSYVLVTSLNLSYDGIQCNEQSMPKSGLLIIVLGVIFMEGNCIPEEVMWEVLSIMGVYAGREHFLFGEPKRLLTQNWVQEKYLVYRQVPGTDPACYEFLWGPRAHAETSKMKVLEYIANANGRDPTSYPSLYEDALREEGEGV
B5: Catenin alpha-3 (Homo sapiens), Q9UI47-2 (parent)
chain: B1 chain
partner: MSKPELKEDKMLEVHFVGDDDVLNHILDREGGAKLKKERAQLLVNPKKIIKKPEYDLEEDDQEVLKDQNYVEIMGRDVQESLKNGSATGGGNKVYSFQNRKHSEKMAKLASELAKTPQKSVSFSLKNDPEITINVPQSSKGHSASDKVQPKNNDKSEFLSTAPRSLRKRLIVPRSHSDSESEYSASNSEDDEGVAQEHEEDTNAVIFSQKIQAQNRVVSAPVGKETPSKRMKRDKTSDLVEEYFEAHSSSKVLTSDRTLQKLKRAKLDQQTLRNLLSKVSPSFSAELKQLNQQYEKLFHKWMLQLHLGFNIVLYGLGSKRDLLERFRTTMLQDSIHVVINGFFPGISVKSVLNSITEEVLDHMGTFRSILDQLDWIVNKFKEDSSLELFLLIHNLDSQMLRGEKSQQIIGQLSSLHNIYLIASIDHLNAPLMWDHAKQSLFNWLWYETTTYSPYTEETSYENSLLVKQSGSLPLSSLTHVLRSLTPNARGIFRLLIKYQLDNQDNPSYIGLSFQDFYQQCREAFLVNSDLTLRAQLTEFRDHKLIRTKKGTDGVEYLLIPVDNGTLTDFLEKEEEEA

Variants of: B1
Conditions: with tri54_human TRIM54, Q9BYV2

| effect of a mutation on the interaction | Variant |
| --- | --- |
| disrupting interaction strength | MSAETPITLNIDPQDLQVQTFTVEKLLEPLIIQVTTLVNCPQNPSSRKKGRSKRASVLLASVEEATWNLLDKGEKIAQEATVLKDELTASLEEDRKESEALKVSAERFTDDPCFLPKREAVVQAARALLAAVTRLLILADMIDVMCLLQHVSAFQRTFESLKNVANKSDLQKTYQKLGKELENLDYLAFKRQQDLKSPNQRDEIAGARASLKENSPLLHSICSACLEHSDVASLKASKDTVCEEIQNALNVISNASQGIQNMTTPPEPQAATLGSALDELENLIVLNPLTVTEEEIRPSLEKRLEAIISGAALLADSSCTRDLHRERIIAECNAIRQALQDLLSEYMNNAGKKERSNTLNIALDNMCKKTRDLRRQLRKAIIDHVSDSFLDTTVPLLVLIEAAKNGREKEIKEYAAIFHEHTSRLVEVANLACSMSTNEDGIKIVKIAANHLETLCPQIINAALALAARPKSQAVKNTMEMYKRTWENHIHVLTEAVDDITSIDDFLAVSGMFLFF [V94D] |

Variants of: B2
Conditions: with kash5_human KASH5, Q8N6L0

| effect of a mutation on the interaction | Variant |
| --- | --- |
| with no effect | MDPLFQQTHKQVHEIQSCMGRLETADKQSVHIVENEIQASIDQIFSRLERLEILSSKEPPNKRQNARLRVDQLKYDVQHLQTALRNFQHRRHAREQQERQREELLSRTFTTNDSDTTIPMDESLQFNSSLQKVHNGMDDLILDWHNILDGLRTQRLTLKGTQKKILDIANMLGLSNTVMRLIEKRAFQDKYFMIGGMLLTCVVMFLVVQYLT [G144W] |

Variants of: B3
Conditions: with REL

| effect of a mutation on the interaction | Variant |
| --- | --- |
| with no effect | MSAETPITLNIDPQDLQVQTFTVEKLLEPLIIQVTTLVNCPQNPSSRKKGRSKRASVLLASVEEATWNLLDKGEKIAQEATVLKDELTASLEEDRKESEALKVSAERFTDDPCFLPKREAVVQAARALLAAVTRLLILADMIDVMCLLQHVSAFQRTFESLKNVANKSDLQKTYQKLGKELENLDYLAFKRQQDLKSPNQRDEIAGARASLKENSPLLHSICSACLEHSDVASLKASKDTVCEEIQNALNVISNASQGIQNMTTPPEPQAATLGSALDELENLIVLNPLTVTEEEIRPSLEKRLEAIISGAALLADSSCTRDLHRERIIAECNAIRQALQDLLSEYMNNAGKKERSNTLNIALDNMCKKTRDLRRQLRKAIIDHVSDSFLDTTVPLLVLIEAAKNGREKEIKEYAAIFHEHTSRLVEVANLACSMSTNEDGIKIVKIAANHLETLCPQIINAALALAARPKSQAVKNTMEMYKRTWENHIHVLTEAVDDITSIDDFLAVSGMFLFF [V94D] |

Variants of: B4
Conditions: with magab_human MAGEA11, P43364

| effect of a mutation on the interaction | Variant |
| --- | --- |
| disrupting interaction strength | MAASMFYGRLVAVATLRNHRPRTAQRAAAQVLGSSGLFNNHGLQVQQQQQRNLSLHEYMSMELLQEAGVSVPKGYVAKSPDEAYAIAKKLGSKDVVIKAQVLAGGRGKGTFESGLKGGVKIVFSPEEAKAVSSQMIGKKLFTKQTGEKGRICNQVLVCERKYPRREYYFAITMERSFQGPVLIGSSHGGVNIEDVAAESPEAIIKEPIDIEEGIKKEQALQLAQKMGFPPNIVESAAENMVKLYSLFLKYNATMIEINPMVEDSDGAVLCMDAKINFDSNSAYRQKKIFDLQDWTQEDERDKDAAKANLNYIGLDGNIGCLVNGAGLAMATMDIIKLHGGTPANFLDVGGGATVHQVTEAFKLITSDKKVLAILVNIFGGIMRCDVIAQGIVMAVKDLEIKIPVVVRLQGTRVDDAKALIADSGLKILACDDLDEAARMVVKLSEIVTLAKQAHVDVKFQLPI [D251N] |
| disrupting interaction strength | MAASMFYGRLVAVATLRNHRPRTAQRAAAQVLGSSGLFNNHGLQVQQQQQRNLSLHEYMSMELLQEAGVSVPKGYVAKSPDEAYAIAKKLGSKDVVIKAQVLAGGRGKGTFESGLKGRVKIVFSPEEAKAVSSQMIGKKLFTKQTGEKGRICNQVLVCERKYPRREYYFAITMERSFQGPVLIGSSHGGVNIEDVAAESPEAIIKEPIDIEEGIKKEQALQLAQKMGFPPNIVESAAENMVKLYSLFLKYDATMIEINPMVEDSDGAVLCMDAKINFDSNSAYRQKKIFDLQDWTQEDERDKDAAKANLNYIGLDGNIGCLVNGAGLAMATMDIIKLHGGTPANFLDVGGGATVHQVTEAFKLITSDKKVLAILVNIFGGIMRCDVIAQGIVMAVKDLEIKIPVVVRLQGTRVDDAKALIADSGLKILACDDLDEAARMVVKLSEIVTLAKQAHVDVKFQLPI [G118R] |

Variants of: B5
Conditions: with orc2_human ORC2, Q13416

| effect of a mutation on the interaction | Variant |
| --- | --- |
| disrupting interaction strength | MSAETPITLNIDPQDLQVQTFTVEKLLEPLIIQVTTLVNCPQNPSSRKKGRSKRASVLLASVEEATWNLLDKGEKIAQEATVLKDELTASLEEDRKESEALKVSAERFTDDPCFLPKREAVVQAARALLAAVTRLLILADMIDVMCLLQHVSAFQRTFESLKNVANKSDLQKTYQKLGKELENLDYLAFKRQQDLKSPNQRDEIAGARASLKENSPLLHSICSACLEHSDVASLKASKDTVCEEIQNALNVISNASQGIQNMTTPPEPQAATLGSALDELENLIVLNPLTVTEEEIRPSLEKRLEAIISGAALLADSSCTRDLHRERIIAECNAIRQALQDLLSEYMNNAGKKERSNTLNIALDNMCKKTRDLRRQLRKAIIDHVSDSFLDTTVPLLVLIEAAKNGREKEIKEYAAIFHEHTSRLVEVANLACSMSTNEDGIKIVKIAANHLETLCPQIINAALALAARPKSQAVKNTMEMYKRTWENHIHVLTEAVDDITSIDDFLAVSGMFLFF [V94D] |
